Experimental data reported in publication PMC10681739, “High-throughput data and modeling reveal insights into the mechanisms of cooperative DNA-binding by transcription factor proteins”.

B1: Table S2 A row 1319 (dsDNA)
DNA 1: GAGGAACCCAAAGTAGGATGTGGTTTTGCAATTGGA
DNA 2: TCCAATTGCAAAACCACATCCTACTTTGGGTTCCTC
B2: Table S2 A row 364 (dsDNA)
DNA 1: AATGAAGGAGGGGCAGGATGTGGTCTTGGTGAATCA
DNA 2: TGATTCACCAAGACCACATCCTGCCCCTCCTTCATT
B3: Table S2 A row 733 (dsDNA)
DNA 1: CAGTGAACAGTTTCCTGTTCCTGTGGTTTTGACTTT
DNA 2: AAAGTCAAAACCACAGGAACAGGAAACTGTTCACTG
B4: Table S2 A row 391 (dsDNA)
DNA 1: TGCAAAAAAACAGGAAACACCCAGCCGCAAATTATA
DNA 2: TATAATTTGCGGCTGGGTGTTTCCTGTTTTTTTGCA
B5: Table S2 A row 329 (dsDNA)
DNA 1: TCCAGCTCCACAGGATGTGGTGAGTGAAGCAGCAAG
DNA 2: CTTGCTGCTTCACTCACCACATCCTGTGGAGCTGGA
B6: Table S2 A row 104 (dsDNA)
DNA 1: TGGGGACCACTGTCAGGATGTGGTCACTGGAGTCAC
DNA 2: GTGACTCCAGTGACCACATCCTGACAGTGGTCCCCA
B7: Table S2 A row 1225 (dsDNA)
DNA 1: GCTAGACAGGAAACAGTGAGCTTCTGTGGGCAGGAG
DNA 2: CTCCTGCCCACAGAAGCTCACTGTTTCCTGTCTAGC
B8: Table S2 A row 1610 (dsDNA)
DNA 1: ACACCTCAGGCAGGATGTGGTAGGGGTTGCCCCAGA
DNA 2: TCTGGGGCAACCCCTACCACATCCTGCCTGAGGTGT
B9: Table S2 A row 414 (dsDNA)
DNA 1: CGCCGAACTTCCGGCAGTAAATTCCGTGGTTTCCCT
DNA 2: AGGGAAACCACGGAATTTACTGCCGGAAGTTCGGCG
B10: Table S2 A row 316 (dsDNA)
DNA 1: GGCCTGTCACACACAGGAAGCGGTCACAGAAAAGCT
DNA 2: AGCTTTTCTGTGACCGCTTCCTGTGTGTGACAGGCC
B11: Table S2 A row 1092 (dsDNA)
DNA 1: CTCACAGAGCAAGTAGGATGTGGTTTCCAGGGGCTG
DNA 2: CAGCCCCTGGAAACCACATCCTACTTGCTCTGTGAG
B12: Table S2 A row 132 (dsDNA)
DNA 1: CGTCTAATTGCAGGAAGTGGTTTGAAATGTTAATCT
DNA 2: AGATTAACATTTCAAACCACTTCCTGCAATTAGACG
B13: Table S2 A row 1614 (dsDNA)
DNA 1: ACCTCAAGCCCAGGATGTGGTTTGGCCACTATTGAG
DNA 2: CTCAATAGTGGCCAAACCACATCCTGGGCTTGAGGT
B14: Table S2 A row 866 (dsDNA)
DNA 1: CTGAAACAGGAAGCTGAGGGTGCGGTTGGGGGAGGA
DNA 2: TCCTCCCCCAACCGCACCCTCAGCTTCCTGTTTCAG
B15: Table S2 A row 123 (dsDNA)
DNA 1: TTTATCATGAATGCAGGATGTGGGCAGACTCACAGC
DNA 2: GCTGTGAGTCTGCCCACATCCTGCATTCATGATAAA
B16: Table S2 A row 155 (dsDNA)
DNA 1: GGGACAGACTCTCCAGGATGTGGTTGGATTTTGGGC
DNA 2: GCCCAAAATCCAACCACATCCTGGAGAGTCTGTCCC
B17: Table S2 A row 1363 (dsDNA)
DNA 1: ATGAGCTATTTCCTGCCTTGTGGTCAGAGCCAGACT
DNA 2: AGTCTGGCTCTGACCACAAGGCAGGAAATAGCTCAT
B18: Table S2 A row 1419 (dsDNA)
DNA 1: TTCACTTCCACCACTTCCTGTGGGTTTTGTTCATCC
DNA 2: GGATGAACAAAACCCACAGGAAGTGGTGGAAGTGAA
B19: Table S2 A row 186 (dsDNA)
DNA 1: GAAGTGTGCTCTTCCGGTACCTGCGGTTCGTTGCGC
DNA 2: GCGCAACGAACCGCAGGTACCGGAAGAGCACACTTC
B20: Table S2 A row 1035 (dsDNA)
DNA 1: AGTTGGTTCCTTCCGGTGGGTTTGTGGGTTTGGGGT
DNA 2: ACCCCAAACCCACAAACCCACCGGAAGGAACCAACT
B21: Table S2 A row 1723 (dsDNA)
DNA 1: CAACCCGGAAGCACTAACGGAGAAACCGCAACTCGG
DNA 2: CCGAGTTGCGGTTTCTCCGTTAGTGCTTCCGGGTTG
B22: Table S2 A row 1086 (dsDNA)
DNA 1: TTTCTGACACTCTCAGGATGTGGGTTTTCACACTGT
DNA 2: ACAGTGTGAAAACCCACATCCTGAGAGTGTCAGAAA
B23: Table S2 A row 1241 (dsDNA)
DNA 1: AAGAAAAAGGGAGGATGTGGTTTAGCAAAAGCACTG
DNA 2: CAGTGCTTTTGCTAAACCACATCCTCCCTTTTTCTT
B24: Table S2 A row 147 (dsDNA)
DNA 1: GCAGTCAGAAGGTGCGGATGCGGTAAGGTATGCGCT
DNA 2: AGCGCATACCTTACCGCATCCGCACCTTCTGACTGC
B25: Table S2 A row 719 (dsDNA)
DNA 1: TTGCCATTCCAGGAAATGAGCTTACCACATTGACTG
DNA 2: CAGTCAATGTGGTAAGCTCATTTCCTGGAATGGCAA
B26: Table S2 A row 1358 (dsDNA)
DNA 1: CAGCCTTGCCGGAAGGCAGAGTTTGTGGTCAGACCG
DNA 2: CGGTCTGACCACAAACTCTGCCTTCCGGCAAGGCTG
B27: Table S2 A row 1069 (dsDNA)
DNA 1: AAAGCATTTCCTGCCTTGACTTAACCACAAGACAGG
DNA 2: CCTGTCTTGTGGTTAAGTCAAGGCAGGAAATGCTTT
B28: Table S2 A row 638 (dsDNA)
DNA 1: CAAGGCACCAACGGATGTGGTATCTGGTGAGGGCTT
DNA 2: AAGCCCTCACCAGATACCACATCCGTTGGTGCCTTG
B29: Table S2 A row 860 (dsDNA)
DNA 1: CTGAGCCGGATGTTACTGGTTAGTGGTTTTCTTTAT
DNA 2: ATAAAGAAAACCACTAACCAGTAACATCCGGCTCAG
B30: Table S2 A row 1336 (dsDNA)
DNA 1: CACCTCGGGGGTTTCCGGTCCGTGGTTAGCTCCTTC
DNA 2: GAAGGAGCTAACCACGGACCGGAAACCCCCGAGGTG
B31: Table S2 A row 1276 (dsDNA)
DNA 1: ATTTCGCTGAAAACAGGAAACCACGAAGCCCAGATG
DNA 2: CATCTGGGCTTCGTGGTTTCCTGTTTTCAGCGAAAT
B32: Table S2 A row 1132 (dsDNA)
DNA 1: GCGCAAAGCCGGAAGGAGGGGTTTGCGGCTGGGGAG
DNA 2: CTCCCCAGCCGCAAACCCCTCCTTCCGGCTTTGCGC
B33: Table S2 A row 601 (dsDNA)
DNA 1: CATTCAGTAAAAGGATGTGGTTTAGAACAGATGAAA
DNA 2: TTTCATCTGTTCTAAACCACATCCTTTTACTGAATG
B34: Table S2 A row 1272 (dsDNA)
DNA 1: TTGAATATGAAAGGAAGTGGTTAGGTGATGTGTTCT
DNA 2: AGAACACATCACCTAACCACTTCCTTTCATATTCAA
B35: Table S2 A row 793 (dsDNA)
DNA 1: GTTCAGCAGGAAGTGGATGTGGATGTGTGGTTGCCA
DNA 2: TGGCAACCACACATCCACATCCACTTCCTGCTGAAC
B36: Table S2 A row 1719 (dsDNA)
DNA 1: GCCACACTTCCGGCGGGGCTGCGACCGCAGAGGGGC
DNA 2: GCCCCTCTGCGGTCGCAGCCCCGCCGGAAGTGTGGC
B37: Table S2 A row 1378 (dsDNA)
DNA 1: CAAGAGAAAGGAAGTGGAAGCTCTTGTGGTCTGGAA
DNA 2: TTCCAGACCACAAGAGCTTCCACTTCCTTTCTCTTG
B38: Table S2 A row 144 (dsDNA)
DNA 1: GCCACACTGGCGGAAATGGTGGTTACTGTTCGAGCC
DNA 2: GGCTCGAACAGTAACCACCATTTCCGCCAGTGTGGC
B39: Table S2 A row 163 (dsDNA)
DNA 1: GATTGTTATGTCCGGAAACCGCTTATCAGAGCCCTG
DNA 2: CAGGGCTCTGATAAGCGGTTTCCGGACATAACAATC
B40: Table S2 A row 1530 (dsDNA)
DNA 1: CCAGGCGGAAGCGGCCGGGAGTAGCGCTGCGGTTGG
DNA 2: CCAACCGCAGCGCTACTCCCGGCCGCTTCCGCCTGG
B41: Table S2 A row 1604 (dsDNA)
DNA 1: GGTGTGTTCTGGGGAGGAAGTGGGTTTTCAGGTTGT
DNA 2: ACAACCTGAAAACCCACTTCCTCCCCAGAACACACC
B42: Table S2 A row 1154 (dsDNA)
DNA 1: GGCCTCGGCCACATCCGGGTTCCACCGCAGATTCGG
DNA 2: CCGAATCTGCGGTGGAACCCGGATGTGGCCGAGGCC
B43: Table S2 A row 1755 (dsDNA)
DNA 1: CAGAGCCAAACATGCGGAAGTGGTTACGTGTACTAG
DNA 2: CTAGTACACGTAACCACTTCCGCATGTTTGGCTCTG
B44: Table S2 A row 145 (dsDNA)
DNA 1: TGGGGAACGCTGCGGATGCTGCGGTAAACCATGCGA
DNA 2: TCGCATGGTTTACCGCAGCATCCGCAGCGTTCCCCA

Molecular target: ETS1:RUNX1 (Homo sapiens, UniProt P14921;Q01196 full;full)
Test: gcPBM; 1 nM ETS1 + 25 nM RUNX1, anti-ETS1 signal, normalised
Settings: tags: N-terminal GST (pDEST15), kept (PMC6008103); copies: 1;1; label: surface-attached array probe

Sequence of ETS1:RUNX1 (P14921 whole entry, chain 1 of 2): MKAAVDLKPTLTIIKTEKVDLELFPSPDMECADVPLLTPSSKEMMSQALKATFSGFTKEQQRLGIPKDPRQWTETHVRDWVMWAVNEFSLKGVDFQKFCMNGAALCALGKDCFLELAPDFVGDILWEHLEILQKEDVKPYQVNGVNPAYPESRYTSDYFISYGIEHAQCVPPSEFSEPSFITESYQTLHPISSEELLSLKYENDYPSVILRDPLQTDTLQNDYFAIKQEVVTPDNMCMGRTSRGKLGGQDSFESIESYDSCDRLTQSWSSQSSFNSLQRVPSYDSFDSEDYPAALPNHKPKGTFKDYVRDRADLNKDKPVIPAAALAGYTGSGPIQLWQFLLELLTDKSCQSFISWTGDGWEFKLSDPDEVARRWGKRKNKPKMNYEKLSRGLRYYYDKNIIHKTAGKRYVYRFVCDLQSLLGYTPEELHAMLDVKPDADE
Sequence of ETS1:RUNX1 (Q01196 whole entry, chain 2 of 2): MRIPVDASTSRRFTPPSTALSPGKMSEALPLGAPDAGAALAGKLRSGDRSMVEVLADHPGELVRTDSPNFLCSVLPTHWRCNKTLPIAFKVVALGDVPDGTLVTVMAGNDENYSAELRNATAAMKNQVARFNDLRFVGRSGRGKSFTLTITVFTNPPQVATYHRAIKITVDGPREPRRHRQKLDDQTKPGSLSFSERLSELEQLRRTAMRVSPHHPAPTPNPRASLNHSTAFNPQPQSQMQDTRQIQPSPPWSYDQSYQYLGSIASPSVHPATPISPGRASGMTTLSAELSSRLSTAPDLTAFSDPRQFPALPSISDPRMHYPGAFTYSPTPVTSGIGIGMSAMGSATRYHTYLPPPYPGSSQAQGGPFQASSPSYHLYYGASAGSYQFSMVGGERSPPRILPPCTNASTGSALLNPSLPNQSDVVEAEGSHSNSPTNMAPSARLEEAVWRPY

Row | Binder | binding signal
1 | B1 | 6860 PBM fluorescence, median of replicate spots
2 | B2 | 7160 PBM fluorescence, median of replicate spots
3 | B3 | 5690 PBM fluorescence, median of replicate spots
4 | B4 | 6020 PBM fluorescence, median of replicate spots
5 | B5 | 6260 PBM fluorescence, median of replicate spots
6 | B6 | 6580 PBM fluorescence, median of replicate spots
7 | B7 | 5960 PBM fluorescence, median of replicate spots
8 | B8 | 6800 PBM fluorescence, median of replicate spots
9 | B9 | 5300 PBM fluorescence, median of replicate spots
10 | B10 | 7880 PBM fluorescence, median of replicate spots
11 | B11 | 5400 PBM fluorescence, median of replicate spots
12 | B12 | 7750 PBM fluorescence, median of replicate spots
13 | B13 | 6100 PBM fluorescence, median of replicate spots
14 | B14 | 6680 PBM fluorescence, median of replicate spots
15 | B15 | 6920 PBM fluorescence, median of replicate spots
16 | B16 | 7450 PBM fluorescence, median of replicate spots
17 | B17 | 5600 PBM fluorescence, median of replicate spots
18 | B18 | 7320 PBM fluorescence, median of replicate spots
19 | B19 | 7140 PBM fluorescence, median of replicate spots
20 | B20 | 5250 PBM fluorescence, median of replicate spots
21 | B21 | 5540 PBM fluorescence, median of replicate spots
22 | B22 | 6500 PBM fluorescence, median of replicate spots

Row | Binder | binding signal
23 | B23 | 5810 PBM fluorescence, median of replicate spots
24 | B24 | 7480 PBM fluorescence, median of replicate spots
25 | B25 | 6220 PBM fluorescence, median of replicate spots
26 | B26 | 6650 PBM fluorescence, median of replicate spots
27 | B27 | 6290 PBM fluorescence, median of replicate spots
28 | B28 | 6740 PBM fluorescence, median of replicate spots
29 | B29 | 5210 PBM fluorescence, median of replicate spots
30 | B30 | 6540 PBM fluorescence, median of replicate spots
31 | B31 | 7820 PBM fluorescence, median of replicate spots
32 | B32 | 7650 PBM fluorescence, median of replicate spots
33 | B33 | 6340 PBM fluorescence, median of replicate spots
34 | B34 | 5150 PBM fluorescence, median of replicate spots
35 | B35 | 7060 PBM fluorescence, median of replicate spots
36 | B36 | 5900 PBM fluorescence, median of replicate spots
37 | B37 | 5370 PBM fluorescence, median of replicate spots
38 | B38 | 6760 PBM fluorescence, median of replicate spots
39 | B39 | 5000 PBM fluorescence, median of replicate spots
40 | B40 | 5640 PBM fluorescence, median of replicate spots
41 | B41 | 7210 PBM fluorescence, median of replicate spots
42 | B42 | 5630 PBM fluorescence, median of replicate spots
43 | B43 | 6770 PBM fluorescence, median of replicate spots
44 | B44 | 5120 PBM fluorescence, median of replicate spots
